Experimental findings from patent US20120114652A1 (AbbVie / Abbott, published 2012) are described below.

For assay [1], the target named is T1, human PAI-1, active, wild-type, non-glycosylated (E. coli-derived) (human, UniProt P05121 24-402). Description: cell-based or functional assay.
For assay [2], the target named is T2, cynomolgus PAI-1 (cynomolgus, UniProt P05121 24-402 (human entry), limits assumed). In words: cell-based or functional assay.
Assay [3] addresses T3, rat PAI-1 (rat, UniProt P20961 24-402).
T3 sequence: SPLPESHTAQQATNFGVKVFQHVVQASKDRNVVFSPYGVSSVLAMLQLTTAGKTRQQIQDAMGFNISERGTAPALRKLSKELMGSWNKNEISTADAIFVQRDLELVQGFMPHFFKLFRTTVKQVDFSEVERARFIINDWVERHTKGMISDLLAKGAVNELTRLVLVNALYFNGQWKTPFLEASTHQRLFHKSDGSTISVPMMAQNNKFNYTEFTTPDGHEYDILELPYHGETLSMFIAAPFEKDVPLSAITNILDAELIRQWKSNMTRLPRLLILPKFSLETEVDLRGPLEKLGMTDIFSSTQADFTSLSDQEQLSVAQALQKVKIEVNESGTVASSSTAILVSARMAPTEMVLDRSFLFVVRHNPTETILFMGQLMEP
Description: cell-based or functional assay.

Assay [4] concerns the target T4, mouse PAI-1 (mouse, UniProt P22777 24-401).
T4 sequence: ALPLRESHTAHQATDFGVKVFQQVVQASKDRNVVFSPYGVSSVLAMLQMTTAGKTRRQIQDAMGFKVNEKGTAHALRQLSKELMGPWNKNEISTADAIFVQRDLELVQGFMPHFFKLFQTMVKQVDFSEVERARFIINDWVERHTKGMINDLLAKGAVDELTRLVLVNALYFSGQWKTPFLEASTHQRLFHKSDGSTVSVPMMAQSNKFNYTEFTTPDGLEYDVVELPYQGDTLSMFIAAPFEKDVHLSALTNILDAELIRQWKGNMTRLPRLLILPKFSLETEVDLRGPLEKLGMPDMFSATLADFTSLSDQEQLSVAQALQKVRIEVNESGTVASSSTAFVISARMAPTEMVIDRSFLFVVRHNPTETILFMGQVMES
In words: cell-based or functional assay.

The target of assay [5] is glycosylated active human PAI-1 produced by CHO cells (human, UniProt P05121 24-402, N-glycosylated (CHO-produced)). In words: cell-based or functional assay.
Assay [6] concerns the target T1, human PAI-1, active, wild-type, …. Description: cell-based or functional assay. This is another data set of the same source.
The target of assay [7] is T3, rat PAI-1. In words: cell-based or functional assay. The source holds these as a separate data set.
In assay [8] the target is T4, mouse PAI-1. In words: cell-based or functional assay. The source holds these as a separate data set.
A further assay concerns the target T5, rabbit PAI-1 (rabbit).
T5 chain: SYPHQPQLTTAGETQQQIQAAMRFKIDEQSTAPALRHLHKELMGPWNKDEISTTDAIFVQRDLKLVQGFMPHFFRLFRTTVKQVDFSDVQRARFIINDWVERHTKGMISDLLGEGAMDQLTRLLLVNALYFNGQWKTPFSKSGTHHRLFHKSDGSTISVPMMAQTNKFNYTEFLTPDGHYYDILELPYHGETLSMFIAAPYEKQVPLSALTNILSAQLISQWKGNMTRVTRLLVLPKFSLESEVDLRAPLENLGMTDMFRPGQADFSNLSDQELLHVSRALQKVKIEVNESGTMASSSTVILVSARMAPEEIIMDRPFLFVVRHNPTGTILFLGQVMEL
Description: competition ELISA (DELFIA), IgG coated, competitor titrated against biotinylated active human PAI-1.

For a further assay, the target named is T6, latent human PAI-1 (human, UniProt P05121 24-402).
T6 construct: also called latent PAI-1
The description is as above.

Assay [9] concerns the target T3, rat PAI-1. The assay is described as above.
Assay [10] has as its target T4, mouse PAI-1. The description is as above.
In assay [11] the target is T1, human PAI-1, active, wild-type, …. In words: cell-based or functional assay. This is another data set of the same source.
In assay [12] the target is T2, cynomolgus PAI-1. Description: cell-based or functional assay. The source holds these as a separate data set.
The target in assay [13] is T4, mouse PAI-1. In words: cell-based or functional assay. This is another data set of the same source.

B1: Antibody 20, IgG1, not germlined (antibody, V domains shown)
VH: QVQLQQSGAEVKKPGSSVKVSCKASGGTFSSYAISWVRQAPGQGLEWMGGIIPTFGTANYAQKFQGRVTITADESTSTAYMELSSLRSEDTAVYYCAREKRQWLEGHFDYWGRGTLVTVSS
VL: DIQMTQSPSTLSASVGDRVTITCRASEGIYHELAWYQQKPGKAPKLLIYRASSLASGVPSRFSGSRSGTEFTLTISSLQPDDFATYYCQQYSDYPLTFGGGTKVEIK
notes: whole IgG1; also called Ab 20
On to B1, for which the IC50 chromogenic in [1] came to 1.6 nM; with cynomolgus PAI-1 [2], 0.8 nM; in the assay with rat PAI-1 [3] it was 2.9 nM; with mouse PAI-1 [4], 1.4 nM. Further, the IC50 ratio cyno/human in the assay with cynomolgus PAI-1 [2] was 0.5. For the same molecule, the IC50 ratio rat/human with rat PAI-1 [3] amounted to 1.8. For the same molecule, in the assay with mouse PAI-1 [4], the IC50 ratio mouse/human came out at 0.9. In [5], the “IC50 chromogenic, hu glyco” value was found to be 1.3 nM. Also, the figures for the “IC50 HT-1080 Exo PAI-1” value (in [6]; with rat PAI-1 [7]; with mouse PAI-1 [8]) were 7.3 nM, 16.2 nM and 5.9 nM, respectively. For the same molecule, the IC50 ratio rabbit/wt with rabbit PAI-1 is 9.1. In addition, in the assay with latent human PAI-1, the IC50 ratio latent/wt was 7.5. Also, the IC50 ratio rat/wt in the assay with rat PAI-1 [9] came out at 2.3. Further, in the assay with mouse PAI-1 [10], the IC50 ratio mouse/wt came out at 7.6.

B2: Antibody 08, scFv (scFv, V domains shown)
VH: QVQLVQSGAEVKKPGSSVKVSCKASGGTFSSYAISWVRQAPGQGLEWMGGIIPTFGTANYAQKFQGRVTITADESTSTAYMELSSLRSEDTAVYYCARERRQWLEGHFDYWGRGTLVTVSS
VL: DIQMTQSPSTLSASVGDRVTITCRASEGIYHNLAWYQQKPGKAPKLLIYKASSLASGVPSRFSGSRSGTEFTLTISSLQPDDFATYYCQQYSNYPLTFGGGTKVEIK
For B2, the “IC50 chromogenic (FIG. 2a)” value in assay [11] was determined as 3.6 nM. In addition, the “IC50 chromogenic (FIG. 2b)” value in the assay with cynomolgus PAI-1 [12] was 0.8 nM. Also, the “IC50 chromogenic (FIG. 2d)” value with mouse PAI-1 [13] is 2.6 nM. Besides, the IC50 chromogenic in assay [1] came out at 3.2 nM; in the assay with cynomolgus PAI-1 [2] it was 1 nM; with rat PAI-1 [3] it was 3 nM. Moreover, the “IC50 HT-1080 Exo PAI-1” value turned out to be 23.7 nM in [6], 50.1 nM in the assay with rat PAI-1 [7] and 26.2 nM in the assay with mouse PAI-1 [8].

B3: Antibody 27, IgG1, not germlined (antibody, V domains shown)
VH: QVQLQQSGAEVKKPGSSVKVSCKASGGAFSSYAISWVRQAPGQGLEWMGGIIPTFGTANYAQKFQGRVTITADESTSTAYMELSGLRSEDTAVYYCAREKRQWLEGHFDYWGRGTPVTVSS
VL: DIQMTQSPSFLSASIGDRVTITCRASEGIYHNLAWYQQKPGKAPKLLIYRASSLASGAPSRFSGSGSGTDFTLTISSLQPDDFATYYCQQYSNYPLTFGGGTKLEIK
notes: whole IgG1; also called Ab 27
As for B3, the IC50 chromogenic worked out at 4.9 nM in [1], 26.5 nM with rat PAI-1 [3] and 16.1 nM with mouse PAI-1 [4]. Also, the IC50 ratio rat/human with rat PAI-1 [3] was found to be 5.4. Moreover, the IC50 ratio mouse/human with mouse PAI-1 [4] was 3.3. The “IC50 chromogenic, hu glyco” value in [5] came to 2.6 nM. Besides, the “IC50 HT-1080 Exo PAI-1” value stood at 10.9 nM in [6], 16.1 nM with rat PAI-1 [7] and 7.8 nM with mouse PAI-1 [8]. Besides, the IC50 ratio rabbit/wt in the assay with rabbit PAI-1 came out at 85. In addition, the IC50 ratio latent/wt with latent human PAI-1 is 6.8. Besides, the IC50 ratio rat/wt with rat PAI-1 [9] stood at 1.2. For the same molecule, the IC50 ratio mouse/wt in the assay with mouse PAI-1 [10] amounted to 6.1.
